Numbered stars: 1 amine (or outer) side, 2 acyl side, 3 side chain; on linkers, the order of the positions; unused ones are H or OH. Bridge positions count the residues as written; N and C are the ends. Square brackets hold non-standard residues; d marks the D form. Side chains are listed from the residue outwards. Ends that are not written are not given here. * marks the point of attachment. C20 diacid = O=C(O)CCCCCCCCCCCCCCCCCCC(=O)*; γGlu = O=C(O)[C@H](CCC(=O)[*:2])N[*:1]; αMeF = C[C@](N)(Cc1ccccc1)C(=O)O; NMeD = CN[C@@H](CC(=O)O)C(=O)O; NMeN = CN[C@@H](CC(N)=O)C(=O)O; αMeL = CC(C)C[C@](C)(N)C(=O)O; Orn = NCCC[C@H](N)C(=O)O; AEEA = NCCOCCOCC(=O)O; CH2 = C([*:1])[*:2]
T1: human calcitonin receptor (hCTR) (human, UniProt P30988 25-474)
T1 sequence (looked up): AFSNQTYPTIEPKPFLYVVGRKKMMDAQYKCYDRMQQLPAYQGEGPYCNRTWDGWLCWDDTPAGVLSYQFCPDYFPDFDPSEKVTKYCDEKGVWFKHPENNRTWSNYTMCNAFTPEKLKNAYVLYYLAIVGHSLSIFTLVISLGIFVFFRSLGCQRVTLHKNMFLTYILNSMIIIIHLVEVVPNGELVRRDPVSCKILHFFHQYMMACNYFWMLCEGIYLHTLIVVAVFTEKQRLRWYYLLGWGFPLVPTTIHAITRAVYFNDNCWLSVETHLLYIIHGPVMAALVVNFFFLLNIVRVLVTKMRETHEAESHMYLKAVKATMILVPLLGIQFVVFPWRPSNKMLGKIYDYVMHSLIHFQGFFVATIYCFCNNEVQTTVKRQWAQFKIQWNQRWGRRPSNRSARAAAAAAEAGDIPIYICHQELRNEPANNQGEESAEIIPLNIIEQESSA


Assays:
[1] = target: T2, human amylin receptor 1 (hAMY1R): human calcitonin receptor co-expressed with human RAMP1 in UMUC3 cells (human, UniProt P30988 25-474; O60894 27-148); assay: cell-based or functional assay
T2 sequence (O60894 27-148, chain 2 of 2, one chain of several): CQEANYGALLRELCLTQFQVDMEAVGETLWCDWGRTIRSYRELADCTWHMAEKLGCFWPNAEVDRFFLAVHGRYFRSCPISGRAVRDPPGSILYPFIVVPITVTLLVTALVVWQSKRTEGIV

[2] = target: T1, human calcitonin receptor (hCTR); assay: cell-based or functional assay
[3] = target: T1, human calcitonin receptor (hCTR); assay: competitive radioligand binding filter assay, hCTR membranes, displacement of 125I-hCT
[4] = target: T2, human amylin receptor 1 (hAMY1R): human …; assay: competitive radioligand binding filter assay, hAMY1R membranes, displacement of 125I-rAMY
Description: The equilibrium dissociation constants (Kd) for the various receptor/radioligand interactions are determined from saturation binding analysis using the same reagents and buffers as described below for compound testing.
Binding reactions are carried out in 0.1 mL total reaction volume in a polystyrene 96 deep-well assay block. […] The binding reaction is initiated by the addition of 0.05 mL of 200 μg/mL hAMY1R diluted in assay buffer to the radioactivity. Assay blocks are gently vortexed, sealed with parafilm, and incubated at RT for approximately 20 hours.

Row | hAMYIR cAMP EC50 [1] [nM] | hCTR cAMP EC50 [2] [nM] | Ki [3] [nM] | Ki [4] [nM] | Binder
1 | 0.08 | 14 |  |  | [γGlu]CNTATCATGKLAEFLVRSSNNFGPK([γGlu-AEEA-AEEA-C20 diacid])LPPTEVGSNTY-NH2 (bridge 2-7 via CH2) [Compound X]
2 | 0.139 | 17 |  |  | KCETATCATG[Orn]LAE[αMeF]LVRSSN[NMeD]FGPILPPTEVGSNTY-NH2 (bridge 2-7 via CH2) [Compound V]
3 | 0.038 | 10.5 |  |  | [γGlu]CNTATCATGKLAEFLVRSSNNFGPK([γGlu-γGlu-AEEA-C20 diacid])LPPTEVGSNTY-NH2 (bridge 2-7 via CH2) [Compound XI]
4 | 0.156 | 16.3 |  |  | [γGlu]CNTATCATG[Orn]LAE[αMeF]LVRSSN[NMeD]FGPKLPPTEVGSNTY-NH2 (bridge 2-7 via CH2) [Compound III]
5 | 0.132 | 18.9 |  |  | [γGlu]CNTATCATGKLAEFLVRSSNNFGPK([AEEA-AEEA-γGlu-C20 diacid])LPPTEVGSNTY-NH2 (bridge 2-7 via CH2) [Compound IX]
6 | 0.173 | 11.9 |  |  | KCETATCATG[Orn][αMeL]AEFLVRSSHNFGPILPPTEVGSNTY-NH2 (bridge 2-7 via CH2) [Compound VII]
7 | 0.113 | 25.9 |  |  | [γGlu]CNTATCATQ[Orn]LAEFLVRSSNNFGPK([AEEA-AEEA-γGlu-C20 diacid])LPPTEVGSNTY-NH2 (bridge 2-7 via CH2) [Compound XII]
8 | 0.107 | 6.14 | 665 | 0.0296 | [γGlu]CNTATCATG[Orn]LAE[αMeF]LVRSSN[NMeD]FGPK([γGlu-γGlu-C20 diacid])LPPTEVGSNTY-NH2 (bridge 2-7 via CH2, Acylated form of Compound III) [Compound IV]
9 | 0.107 | 13.2 | 235 | 0.0445 | K([γGlu-γGlu-C20 diacid])CETATCATG[Orn]LAE[αMeF]LVRSSN[NMeD]FGPILPPTEVGSNTY-NH2 (bridge 2-7 via CH2, Acylated form of Compound V) [Compound VI]
10 | 0.133 | 18 |  |  | [γGlu]CNTATCATG[Orn]LAE[αMeF]LVRSSN[NMeN]FGPKLPPTEVGSNTY-NH2 (bridge 2-7 via CH2) [Compound I]
11 | 0.107 | 9.69 | 927 | 0.0435 | K([γGlu-γGlu-C20 diacid])CETATCATG[Orn][αMeL]AEFLVRSSHNFGPILPPTEVGSNTY-NH2 (bridge 2-7 via CH2, Acylated form of Compound VII) [Compound VIII]
12 | 0.078 | 9.49 |  |  | [γGlu]CGTATCATG[Orn]LAEFLVRSSNNFGPK([γGlu-γGlu-C20 diacid])LPPTEVGSNTY-NH2 (bridge 2-7 via CH2) [Compound XIII]
13 | 0.075 | 2.34 | 202 | 0.017 | [γGlu]CNTATCATG[Orn]LAE[αMeF]LVRSSN[NMeN]FGPK([γGlu-γGlu-C20 diacid])LPPTEVGSNTY-NH2 (bridge 2-7 via CH2, Acylated form of Compound I) [Compound II]

From patent US20220288168A1 (Eli Lilly, published 2022)
